Key:
[1] = target: cMyc-tagged C-terminal TLR2 (cTLR2) recombinant protein, C-terminal TIR domain of TLR2 (640-784 amino acids) (UniProt Q9QUN7); experiment: SPR, cTLR2 immobilised; reference mTIDM
[2] = target: cMyc-tagged C-terminal TLR2 (cTLR2) recombinant protein, C-terminal TIR domain of TLR2 (640-784 amino acids) (UniProt Q9QUN7); experiment: thermal shift assay of cTLR2 with wtTIDM peptide
[3] = target: cMyc-tagged C-terminal TLR2 (cTLR2) recombinant protein, C-terminal TIR domain of TLR2 (640-784 amino acids) (UniProt Q9QUN7); experiment: SPR, cTLR2 immobilised, peptide as analyte; equilibrium response versus peptide concentration; wtTIDM peptide
[4] = target: cMyc-tagged C-terminal TLR2 (cTLR2) recombinant protein, C-terminal TIR domain of TLR2 (640-784 amino acids) (UniProt Q9QUN7); experiment: thermal shift assay of cTLR2 with mTIDM peptide
[5] = target: cMyc-tagged C-terminal TLR2 (cTLR2) recombinant protein, C-terminal TIR domain of TLR2 (640-784 amino acids) (UniProt Q9QUN7); experiment: SPR, cTLR2 immobilised, peptide as analyte; equilibrium response versus peptide concentration; mTIDM (mutated) peptide

Chain of cMyc-tagged C-terminal TLR2 (cTLR2) recombinant protein, C-terminal TIR domain of TLR2 (640-784 amino acids) (Q9QUN7 640-784 limits assumed, form in doubt): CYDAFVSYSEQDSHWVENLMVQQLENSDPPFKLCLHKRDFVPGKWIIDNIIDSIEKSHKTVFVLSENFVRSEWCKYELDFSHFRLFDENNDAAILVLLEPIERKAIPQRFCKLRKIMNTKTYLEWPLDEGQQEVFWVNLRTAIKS

| Binder | fold stronger affinity than mTIDM [1] | ΔTm (shift of melting temperature) [2] | Kd [3] | ΔTm (shift of melting temperature) [4] | Kd [5] |
| --- | --- | --- | --- | --- | --- |
| DRQIKIWFQNRRMKWKKPGAHQK [Wild type (wt) TIDM peptide (TLR2-interacting domain of MyD88 joined to Antennapedia homeodomain)] | 2.5 fold | 4.96 ° C. | 8 µM | – | – |
| DRQIKIWFQNRRMKWKKPGWHQD [Mutated (m) TIDM peptide] | – | – | – | 0.87 ° C. | 19 µM |
